target: T1, ERRα1 (estrogen-related receptor alpha 1, NR3B1) (Homo sapiens, UniProt P11474 P11474:1-423); assay: cell_activity; HeLa, 3xERE-TK-luc reporter; conditions: tags:
T1 sequence: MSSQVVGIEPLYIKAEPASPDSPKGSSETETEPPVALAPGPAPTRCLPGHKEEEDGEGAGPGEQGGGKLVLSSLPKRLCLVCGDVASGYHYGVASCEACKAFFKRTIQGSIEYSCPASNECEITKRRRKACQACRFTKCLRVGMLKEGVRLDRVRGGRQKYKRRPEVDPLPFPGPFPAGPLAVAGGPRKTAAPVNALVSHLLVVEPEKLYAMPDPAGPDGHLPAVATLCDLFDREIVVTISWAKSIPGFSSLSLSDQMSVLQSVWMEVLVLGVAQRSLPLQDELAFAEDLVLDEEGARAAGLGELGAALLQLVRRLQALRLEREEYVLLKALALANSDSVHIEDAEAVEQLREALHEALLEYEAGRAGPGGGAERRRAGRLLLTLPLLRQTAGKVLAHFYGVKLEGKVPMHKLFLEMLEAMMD

Binder | activity
Consensus palindromic ERE (dsDNA) DNA 1: TAAGCTTAGGTCACAGTGACCTAAGCTTA DNA 2: TAAGCTTAGGTCACTGTGACCTAAGCTTA | 2.5 fold activation

target: T1, ERRα1 (estrogen-related receptor alpha …); assay: competition; competition EMSA, COS extract; conditions: tags: COS / COS-M6 whole-cell extract, pcDNA3.1-hERRα1 or pRSV-hERRα1

Binder | binding signal
PgR site 3 (dsDNA) DNA 1: TCCTAAGGACTGTCAAGGTCATCAAATACAAGG DNA 2: CCTTGTATTTGATGACCTTGACAGTCCTTAGGA | 1.45 RBA vs reference ERRE
ErbB2 ERRE (dsDNA) DNA 1: AAAGGAACTTTCCCAAGGTCACAGAGCTGAGCT DNA 2: AGCTCAGCTCTGTGACCTTGGGAAAGTTCCTTT | 1.01 RBA vs reference ERRE
IGF2 site 2 (dsDNA) DNA 1: CTGTCGGCAGGAACAAGGTCACCCCTTGGCGTT DNA 2: AACGCCAAGGGGTGACCTTGTTCCTGCCGACAG | 0.25 RBA vs reference ERRE
elk1 site (dsDNA) DNA 1: CTCCCATCTCACTTAAGGTCAAAGCCAGGGTCC DNA 2: GGACCCTGGCTTTGACCTTAAGTGAGATGGGAG | 0.22 RBA vs reference ERRE
BRCA1 site (dsDNA) DNA 1: GTAATTGCTGTACGAAGGTCAGAATCGCTACCT DNA 2: AGGTAGCGATTCTGACCTTCGTACAGCAATTAC | 0.17 RBA vs reference ERRE
aromatase site (dsDNA) DNA 1: CCTGAGACTCTACCAAGGTCAGAAATGCTGCAA DNA 2: TTGCAGCATTTCTGACCTTGGTAGAGTCTCAGG | 0.17 RBA vs reference ERRE
PgR site 1 (dsDNA) DNA 1: AAAATTGTTTTGTCTAGGTCATTTGCATTTTCA DNA 2: TGAAAATGCAAATGACCTAGACAAAACAATTTT | 0.14 RBA vs reference ERRE
EGF site (dsDNA) DNA 1: CAAATAATGGGCTGAAGGTGAACTATCTTTACT DNA 2: AGTAAAGATAGTTCACCTTCAGCCCATTATTTG | 0.14 RBA vs reference ERRE
pS2 site 2 (dsDNA) DNA 1: GTAGGACCTGGATTAAGGTCAGGTTGGAGGAGA DNA 2: TCTCCTCCAACCTGACCTTAATCCAGGTCCTAC | 0.12 RBA vs reference ERRE
ERα promoter site (dsDNA) DNA 1: ATGTTTGGTATGAAAAGGTCACATTTTATATTC DNA 2: GAATATAAAATGTGACCTTTTCATACCAAACAT | 0.11 RBA vs reference ERRE
BRCA2 site (dsDNA) DNA 1: AGAACATCCCTTTTAAGGTCAGAACAAAGGTAT DNA 2: ATACCTTTGTTCTGACCTTAAAAGGGATGTTCT | 0.08 RBA vs reference ERRE
Prolactin site 3 (dsDNA) DNA 1: CCTCAGAGTGGCTCAGGGTCAGAGAAGGTAGAG DNA 2: CTCTACCTTCTCTGACCCTGAGCCACTCTGAGG | 0.07 RBA vs reference ERRE
cyclin D1 site (dsDNA) DNA 1: GCGAGGAAAGCGTGAAGGTGATTTCAGTTAATT DNA 2: AATTAACTGAAATCACCTTCACGCTTTCCTCGC | 0.07 RBA vs reference ERRE
IGF2 site 3 (dsDNA) DNA 1: GGTGGACGCTGCTGAAGGTGAGCGAGACCCCGG DNA 2: CCGGGGTCTCGCTCACCTTCAGCAGCGTCCACC | 0.06 RBA vs reference ERRE
Prolactin site 1 (dsDNA) DNA 1: TGTCCATTTTCTTCTAGGTCAACCCCAATGGTA DNA 2: TACCATTGGGGTTGACCTAGAAGAAAATGGACA | 0.06 RBA vs reference ERRE
PgR site 2 (dsDNA) DNA 1: TCCTTGCTAAACCCAAGGTCATAAATCTTTTCT DNA 2: AGAAAAGATTTATGACCTTGGGTTTAGCAAGGA | 0.91 RBA vs reference ERRE
ERβ promoter site (dsDNA) DNA 1: GGTGCTCCCACTTAGAGGTCACGCGCGGCGTCG DNA 2: CGACGCCGCGCGTGACCTCTAAGTGGGAGCACC | 0.54 RBA vs reference ERRE
pS2 site 1 (dsDNA) DNA 1: TCCCTTCCCCCTGCAAGGTCACGGTGGCCACCC DNA 2: GGGTGGCCACCGTGACCTTGCAGGGGGAAGGGA | 0.49 RBA vs reference ERRE
Cathepsin D site (dsDNA) DNA 1: TGGCATATTGGGTGAAGGTCAAGGGAGTGGCTT DNA 2: AAGCCACTCCCTTGACCTTCACCCAATATGCCA | 0.49 RBA vs reference ERRE
IGF1R site (dsDNA) DNA 1: GCTCCGGCTCGCTGAAGGTCACAGCCGAGGCGA DNA 2: TCGCCTCGGCTGTGACCTTCAGCGAGCCGGAGC | 0.36 RBA vs reference ERRE
hMDM2 site (dsDNA) DNA 1: GGGAGTTCAGGGTAAAGGTCACGGGGCCGGGGC DNA 2: GCCCCGGCCCCGTGACCTTTACCCTGAACTCCC | 0.35 RBA vs reference ERRE
Prolactin site 2 (dsDNA) DNA 1: CAAATTTGAAACTAAAGGTCACAGGCTGCTTTA DNA 2: TAAAGCAGCCTGTGACCTTTAGTTTCAAATTTG | 0.33 RBA vs reference ERRE

Source: patent publication US20030152959, “Method of using estrogen-related receptor alpha (ERRalpha) status to determine prognosis, treatment strategy and predisposition to breast cancer, and method of using ERRalpha as a therapeutic target for the treatment of breast cancer” (published 2003)
